2 molecules from paper PMC4753479, “A CAPS-based binding assay provides semi-quantitative validation of protein-DNA interactions” can be followed below.

For data set [1], the target named is T1, rOsVAL2-B3 (rice, UniProt Q6Z3U3 144-517).
T1 sequence: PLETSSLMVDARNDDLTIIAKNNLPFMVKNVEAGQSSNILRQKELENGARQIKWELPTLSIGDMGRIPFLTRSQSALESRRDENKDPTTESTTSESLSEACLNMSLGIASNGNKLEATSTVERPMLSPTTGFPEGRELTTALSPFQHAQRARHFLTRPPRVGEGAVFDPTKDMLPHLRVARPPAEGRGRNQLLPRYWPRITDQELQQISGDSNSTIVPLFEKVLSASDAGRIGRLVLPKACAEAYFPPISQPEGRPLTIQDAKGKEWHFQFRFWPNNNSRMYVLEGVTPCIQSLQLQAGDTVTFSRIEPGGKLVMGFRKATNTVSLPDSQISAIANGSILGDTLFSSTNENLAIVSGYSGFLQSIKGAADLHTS
As to the kind of experiment: restriction protection (CBA). To be noted: NsiI, same inhibitory effect as 5 ug rOsGD1-B3, 150 ng DNA in 15 ul, CBA: restriction enzyme buffer, 1-7 ug protein, 30 min at 37 C then 1 h digestion at 37 C, pull-down: 1 ug biotinylated DNA, 12 h ….

In data set [2] the target is T2, rOsGD1-B3 (rice, UniProt Q0D5G4 342-640).
T2 sequence: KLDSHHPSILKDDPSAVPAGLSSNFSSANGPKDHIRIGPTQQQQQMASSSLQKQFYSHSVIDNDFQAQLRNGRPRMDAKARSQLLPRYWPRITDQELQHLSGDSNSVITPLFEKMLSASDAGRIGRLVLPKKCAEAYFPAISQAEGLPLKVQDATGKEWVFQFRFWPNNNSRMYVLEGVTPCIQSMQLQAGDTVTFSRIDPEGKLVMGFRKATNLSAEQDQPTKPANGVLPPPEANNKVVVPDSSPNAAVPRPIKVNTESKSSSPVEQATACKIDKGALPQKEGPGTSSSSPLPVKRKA
As to the kind of experiment: restriction protection (CBA). To be noted: 150 ng DNA in 15 ul, CBA: restriction enzyme buffer, 1-7 ug protein, 30 min at 37 C then 1 h digestion at 37 C, pull-down: 1 ug biotinylated DNA, 12 h ….

Data set [3] addresses T1, rOsVAL2-B3. Put plainly: pull-down; stronger than rOsGD1-B3; CBA: restriction enzyme buffer, 150 ng DNA, 1-7 ug protein, 15 ul, 30 min at 37 C then 1 h digestion at 37 C; pull-down: 1 ug biotinylated DNA, 12 h, streptavidin-agarose, wash TBS (20 mM Tris, 150 mM NaCl), competitors 5x/10x/20x. To be noted: protein: recombinant; tags: 6xHis (pGoldI); label: 5' biotin, both strands; blunt.

Data set [4] addresses T2, rOsGD1-B3. As to the kind of experiment: pull-down; weaker than rOsVAL2-B3; CBA: restriction enzyme buffer, 150 ng DNA, 1-7 ug protein, 15 ul, 30 min at 37 C then 1 h digestion at 37 C; pull-down: 1 ug biotinylated DNA, 12 h, streptavidin-agarose, wash TBS (20 mM Tris, 150 mM NaCl), competitors 5x/10x/20x. To be noted: protein: recombinant; tags: 6xHis (pGoldI); label: 5' biotin, both strands; blunt.

The molecule WT RY-DNA 420 bp displayed a binding signal with rOsVAL2-B3 [1] of 3 µg protein. The same molecule yielded a protein amount for inhibition of NsiI digestion with rOsGD1-B3 [2] of 5 µg protein.

B1: WT RY pull-down probe (dsDNA)
DNA 1: TAATTGCATGCATATATGCACGC
DNA 2: GCGTGCATATATGCATGCAATTA
On to B1, for which the binding result with rOsVAL2-B3 [3] and in the data set with rOsGD1-B3 [4] was “binds” throughout.
